Test [1] deals with T1, human PD-L1 on cells (CHO-K1/hPDL1; MDA-MB-231) (human, UniProt Q9NZQ7 19-290).
T1 construct: whole, on cells
Put plainly: competition FACS: biotinylated PD-1 to CHO-K1/hPDL1 cells (Experiment 1).

Test [2] addresses T2, human CTLA4-His protein (ACRO Biosystems, #CT4-H5229) (human, UniProt P16410 36-161).
T2 construct: extracellular domain; bought; also called hCTLA4-His; human CTLA4 extracellular domain recombinant protein
The test can be described thus: ELISA, coated hCTLA4-His.

Test [3] concerns the target T1, human PD-L1 on cells (CHO-K1/hPDL1; …). Put plainly: FACS, CHO-K1/hPDL1 cells (Experiment 1). (In general: A flow cytometer gives signals particle by particle.)
The target in test [4] is T3, human CTLA4 on cells (CHO-K1/hCTLA4; HEK293/hCTLA4; 293F-hCTLA4) (human, UniProt P16410 36-223).
T3 construct: whole, on cells
The test can be described thus: FACS, CHO-K1/hCTLA4 cells (Test 1).

The target of test [5] is T4, human PD-L1-His protein (ACRO Biosystems, #PD1-H5229) (human, UniProt Q9NZQ7 19-238).
T4 construct: extracellular domain; bought; also called hPDL1-His; human PD-L1 extracellular domain recombinant protein
The test can be described thus: ELISA, coated hPD-L1-His. (In an ELISA, binding on a coated surface is turned into a signal by an enzyme label.)

The target of test [6] is T5, biotinylated human CTLA4-Fc protein (ACRO Biosystems, #CT4-H82F3) (human, UniProt P16410 36-161, biotinylated).
T5 construct: bought; also called human CTLA4 protein
The test can be described thus: competition ELISA: biotinylated hCTLA4-Fc to coated B7-1-Fc.

In test [7] the target is T3, human CTLA4 on cells (CHO-K1/hCTLA4; …). The test can be described thus: competition FACS: biotinylated B7-1-Fc to CHO-K1/hCTLA4 cells (Test 1).
In test [8] the target is T5, biotinylated human CTLA4-Fc protein …. The test can be described thus: competition ELISA: biotinylated hCTLA4-Fc to coated B7-1-Fc. The source holds these as a separate data set.
The target in test [9] is T3, human CTLA4 on cells (CHO-K1/hCTLA4; …). Put plainly: competition FACS: biotinylated B7-1-Fc to CHO-K1/hCTLA4 cells.
Test [10] addresses T6, cynomolgus monkey BCMA (ACRO Biosystems, #BCA-C82F4) (cynomolgus monkey, UniProt A0A2K5UD97 1-53).
T6 construct: bought; also called cyBCMA.Fc
The test can be described thus: BLI, Octet Red96e.

Test [11] addresses T7, cynomolgus monkey BCMA on cells (HEK293T/cyno BCMA) (cynomolgus monkey, UniProt A0A2K5UD97 1-183).
T7 construct: whole, on cells
The test can be described thus: FACS, HEK293T/cyno BCMA cells.

The target in a further test is T8, human 4-1BB (human, UniProt Q07011 24-255).
T8 construct: whole, on cells; also called CD137; TNFRSF9
Put plainly: flow cytometry, CHO-K1/hu 4-1BB cells.

In test [12] the target is T9, human PD-L1 (programmed death ligand 1) (human, UniProt Q9NZQ7 19-290).
T9 construct: whole, on cells; also called hPDL1; CD274
Put plainly: flow cytometry (FACS) on CHO-K1/hPDL1 cells, Experiment 2.

Another test has as its target T10, cynomolgus monkey 4-1BB (cynomolgus monkey).
T10 construct: whole, on cells; also called cyno 4-1BB
The test can be described thus: flow cytometry (FACS) on CHO-K1/cyno 4-1BB cells, Experiment 2.

For test [13], the target named is T2, human CTLA4-His protein (ACRO …). The test can be described thus: ELISA, coated hCTLA4-His. The source holds these as a separate data set.
For test [14], the target named is T11, human CTLA4 on CHO-K1/hCTLA4 cells (human, UniProt P16410 36-223).
T11 construct: whole, on cells; CHO-K1 cell line highly expressing human CTLA4; also called human CTLA4 cell
Put plainly: flow cytometry on CHO-K1/hCTLA4 cells, Experiment 3.

Test [15] deals with T11, human CTLA4 on CHO-K1/hCTLA4 cells. The test can be described thus: flow cytometry on CHO-K1/hCTLA4 cells, Experiment 2.
For test [16], the target named is T12, biotinylated human CTLA4-Fc protein (ACRO Biosystems, #CT4-H82F3) (human, UniProt P16410 36-161, biotinylated).
T12 construct: Bought protein; also called human CTLA4 protein
Put plainly: competition ELISA: coated human B7-1-Fc, biotinylated human CTLA4-Fc, Experiment 2.

For test [17], the target named is T11, human CTLA4 on CHO-K1/hCTLA4 cells. The test can be described thus: flow cytometry competition: biotinylated human B7-1-Fc on CHO-K1/hCTLA4 cells, Experiment 1.
Test [18] concerns the target T12, biotinylated human CTLA4-Fc protein …. Put plainly: competition ELISA: coated human B7-1-Fc, biotinylated human CTLA4-Fc, Experiment 1.
Test [19] deals with T11, human CTLA4 on CHO-K1/hCTLA4 cells. The test can be described thus: flow cytometry on CHO-K1/hCTLA4 cells, Experiment 1.
For test [20] the target is unchanged. Put plainly: flow cytometry competition: biotinylated human B7-1-Fc on CHO-K1/hCTLA4 cells, Experiment 2.

B1: PR000302 (bispecific antibody, human IgG1, kappa)
chain: DIQMTQSPSTLSASVGDRVTVTCRASQSIYIWLAWYQQKPGKAPNLLIYKASSLETGVPSRFSGSGSGTEFTLTISSLQPDDFATYYCQQYYGSSRTFGQGTKVEIKRTVAAPSVFIFPPSDEQLKSGTASVVCLLNNFYPREAKVQWKVDNALQSGNSQESVTEQDSKDSTYSLSSTLTLSKADYEKHKVYACEVTHQGLSSPVTKSFNRGECEPKSSDKTHTPPPPPEVQLVESGGGLIQPGGSLRLSCAVSGFTVSKNYMSWVRQAPGKGLEWVSVVYSGGSKTYADSVKGRFTISRDNSKNTLYLQMNSLRAEDTAVYYCARAVPHSPSSFDIWGQGTMVTVSS
heavy: not shown
Usually IC50 stands for the midpoint of a concentration-inhibition curve. One may read the EC50 as the midpoint of the concentration-response curve. B1: the IC50 in test [1] was found to be 0.64 nM; in test [7], 71.2 nM; in test [8] it was 11.6 nM. Also, the “Maximum inhibition rate (%)” value was determined as 96.7% in [1], 49% in test [7] and 98.9% in test [8]. The EC50 was determined as 10.6 nM in [2], 0.737 nM in test [3], 26.1 nM in test [4] and 0.152 nM in test [5]. Also, the “Maximum OD450” value was 3.55 OD450 in test [2] and 3.54 OD450 in [5]. In addition, the “Maximum MFI” value in test [3] worked out at 18600 MFI; in test [4], 1570 MFI. In addition, the “fold weaker IC50 than PR000184” value in [6] was 4 fold.

B2: PR002672 (bispecific antibody)
chain 1: not shown
chain 2: not shown
chain 3: EVQLVESGGGLIQPGGSLRLSCAVSGFTVSKNYMSWVRQAPGKGLEWVSVVYSGGSKTYADSVKGRFTISRDNSKNTLYLQMNSLRAEDTAVYYCARAVPHSPSSFDIWGQGTMVTVSSGGGGSEVQLVESGGGLIQPGGSLRLSCAVSGFTVSKNYMSWVRQAPGKGLEWVSVVYSGGSKTYADSVKGRFTISRDNSKNTLYLQMNSLRAEDTAVYYCARAVPHSPSSFDIWGQGTMVTVSSEPKSSDKTHTCPPCPAPELLGGPDVFLFPPKPKDTLMISRTPEVTCVVVDVSHEDPEVKFNWYVDGVEVHNAKTKPREEQYNSTYRVVSVLTVLHQDWLNGKEYKCKVSNKALPAPEEKTISKAKGQPREPQVCTLPPSREEMTKNQVSLSCAVKGFYPSDIAVEWESNGQPENNYKTTPPVLDSDGSFFLVSKLTVDKSRWQQGNVFSCSVMHEALHNHYTQKSLSLSPGK
notes: HER2×CTLA4, structure 18 Fab(cross Fd/LC)-Fc-VH-VH
For B2, the “fold poorer IC50 than the parent monoclonal antibody” value in test [9] is approximately 4 fold.

B3: PR002199, BCMA×CD3 bispecific antibody derived from WO2019133761A1 (bispecific antibody, human IgG1, kappa, L234A L235A)
chain 1: not shown
chain 2: EVQLVESGGGLVQPGRSLRLSCAASGFTFDDYAMHWVRQAPGKGLEWVSGISWNSGSIGYADSVKGRFTISRDNAKNSLYLQMNSLRAEDTALYYCAKDSRGYGDYRLGGAYWGQGTLVTVSSASTKGPSVFPLAPSSKSTSGGTAALGCLVKDYFPEPVTVSWNSGALTSGVHTFPAVLQSSGLYSLSSVVTVPSSSLGTQTYICNVNHKPSNTKVDKKVEPKSCDKTHTCPPCPAPEAAGGPSVFLFPPKPKDTLMISRTPEVTCVVVDVSHEDPEVKFNWYVDGVEVHNAKTKPREEQYNSTYRVVSVLTVLHQDWLNGKEYKCKVSNKALGAPIEKTISKAKGQPREPQVYTLPPCREEMTKNQVSLWCLVKGFYPSDIAVEWESNGQPENNYKTTPPVLDSDGSFFLYSKLTVDKSRWQQGNVFSCSVMHEALHNHYTQKSLSLSPGK
chain 3: EVQLLESGGGLVQPGGSLRLSCAASGFTVSSYGMSWVRQAPGKGPEWVSGIRGSDGSTYYADSVKGRFTISRDNSKNTLYLQMNSLRAEDTAVYYCAKQGENDGPFDHRGQGTLVTVSSGGGGSEVQLLESGGGLVQPGGSLRLSCAASGFTVSSYGMSWVRQAPGKGPEWVSGIRGSDGSTYYADSVKGRFTISRDNSKNTLYLQMNSLRAEDTAVYYCAKQGENDGPFDHRGQGTLVTVSSASEPKSSDKTHTCPPCPAPEAAGGPSVFLFPPKPKDTLMISRTPEVTCVVVDVSHEDPEVKFNWYVDGVEVHNAKTKPREEQYNSTYRVVSVLTVLHQDWLNGKEYKCKVSNKALGAPIEKTISKAKGQPREPQVCTLPPSREEMTKNQVSLSCAVKGFYPSDIAVEWESNGQPENNYKTTPPVLDSDGSFFLVSKLTVDKSRWQQGNVFSCSVMHEALHNHYTQKSLSLSPGK
notes: also called positive control 2
Turning to B3, the binding result in test [10] and in [11] was “no binding” throughout.

B4: PR001760, anti-4-1BB heavy-chain antibody 1016P0011G10, hIgG1 (antibody, V domains shown)
VH: EVQLVESGGGVVQPGGSLRLSCAASGFTFSNYAMTWVRQAPEKGLEWVSSISGSGVSTYYADSVKGRFTISRDNSKNTLYLQMTRLTAEDTAVYFCAKEGSSETDDHYYNVDVWGQGTTVTVSS
notes: Heavy-chain-only antibody (HCAb), no light chain
Take B4: in the test with human 4-1BB, the response was half-maximal at 3.76 nM (EC50) and the “Maximum MFI” value came to 83600.

B5: PR004270, PD-L1×4-1BB bispecific antibody molecule of Fab-HCAb symmetric structure (bispecific antibody, human IgG1)
chain 1: EVQLVESGGGLVQPGGSLRLSCAASGFTFSSYWMSWVRQAPGKGLEWVANIKQEGSEKYYVDSVKGRFTISRDNAKNSLYLQMNSLRAEDTAVYYCARDRAVAGAFDIWGQGTMVTVSSASTKGPSVFPLAPSSKSTSGGTAALGCLVKDYFPEPVTVSWNSGALTSGVHTFPAVLQSSGLYSLSSVVTVPSSSLGTQTYICNVNHKPSNTKVDKKVEPKSC
chain 2: not shown
notes: Structure 1 Fab(CL)-VH-Fc; Fab of PR000265, VH of PR001760; linker H1_15, human IgG1 hinge (C220S); human IgG1 (L234A, L235A)
B5: the EC50 in [12] was determined as 0.963 nM; with cynomolgus monkey 4-1BB, 1.55 nM.

B6: PR000303 (bispecific antibody, human IgG1, kappa)
light: DIQMTQSPSTLSASVGDRVTVTCRASQSIYIWLAWYQQKPGKAPNLLIYKASSLETGVPSRFSGSGSGTEFTLTISSLQPDDFATYYCQQYYGSSRTFGQGTKVEIKRTVAAPSVFIFPPSDEQLKSGTASVVCLLNNFYPREAKVQWKVDNALQSGNSQESVTEQDSKDSTYSLSSTLTLSKADYEKHKVYACEVTHQGLSSPVTKSFNRGEC
chain: not shown
In the case of B6, the results for the IC50 in test [1], in test [7] and in test [8] were 0.695 nM, 9.71 nM and 4.12 nM, respectively. The “Maximum inhibition rate (%)” value turned out to be 95.9% in test [1], 83.3% in test [7] and 97.3% in [8]. The EC50 in test [2] was found to be 1.57 nM; in [3] it was 0.848 nM; in test [4], 4.36 nM; in test [5], 0.241 nM. Further, the “Maximum OD450” value is 2.72 OD450 in test [2] and 3.52 OD450 in [5]. Further, the “Maximum MFI” value in test [3] was 18000 MFI; in test [4], 2040 MFI. Also, the “fold poorer EC50 than PR000184” value in test [13] was determined as 2.6 fold.

B7: Anti-CTLA4 heavy-chain antibody CL5v3, hIgG1 (antibody, V domains shown)
VH: EVQLVESGGGLIQPGGSLRLSCAVSGFTVSKNYMSWVRQAPGKGLEWVSVVYSGGSKTYADSVKGRFTISRDNSKNTLYLQMNSLRAEDTAVYYCARAVPHSPSSFDIWGQGTMVTVSS
notes: Heavy-chain-only antibody (HCAb), no light chain; parent of the CTLA4 end of the HER2xCTLA4 bispecifics; also called PR000184
Take B7: the EC50 turned out to be 3.05 nM in [14], 1.79 nM in [15] and 1.59 nM in test [19]. Also, the “Maximum MFI” value in test [15] came to 1080 MFI; in test [19], 214 MFI. The IC50 turned out to be 1.69 nM in [16], 1.69 nM in test [17], 2.46 nM in test [18] and 0.239 nM in test [20]. This molecule came in with a Maximum inhibition rate in [17] of 99.6%.

(Values after patent publication US20230322953A1 (HARBOUR BIOMED SHANGHAI, published 2023).)
